The values below come from US20230250160A1 (HOBER BIOTECH, published 2023).

In general, Kd refers to a measure of binding affinity in units of concentration. Broadly, the koff is the rate constant with which the complex falls apart. What is called kon is the rate constant with which the complex forms.

Where two headings read alike, the source gives them in different places.

The target in assay [1] is T1, C-reactive protein (human (produced in the Human Secretome …, UniProt P02741 19-224)).
T1 construct: also called CRP; bCRP
T1 sequence (looked up): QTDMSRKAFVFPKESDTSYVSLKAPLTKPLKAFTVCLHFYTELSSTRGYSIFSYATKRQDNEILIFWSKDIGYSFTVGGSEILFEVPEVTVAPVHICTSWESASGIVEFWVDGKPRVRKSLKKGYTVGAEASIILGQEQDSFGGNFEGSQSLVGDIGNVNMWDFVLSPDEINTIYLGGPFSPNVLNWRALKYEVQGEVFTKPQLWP
Nature of the assay: SPR Biacore T200, target on CM5 chip, ADAPT injected, 1:1 fit. On the procedure: (§1) Sensor-based binding analysis was performed using a Biacore T200 system (GE Healthcare, Stockholm, Sweden). All analyses were conducted using CM-5 sensor chips coated with the target antigen, another irrelevant antigen and HSA. One surface was left as reference. Binding analysis was performed in PBS-T at 25° C. The ADAPT variants were diluted in PBS-T to 500 nM, 250 nM, 125 nM, 62.5 nM and 31.25 nM. The samples were injected at a flow rate of 30 ul/min for 120 s followed by injection of PBS-T for 240 s to monitor the dissociation. Surfaces were regenerated with 10 mM HCl. Kinetic parameters were determined using the Biacore Insight Evaluation software, assuming a 1:1 binding.

Assay [2] deals with T2, Human Serum Albumin (human, UniProt P02768 25-609).
T2 construct: also called HSA
T2 sequence (P02768 25-609 limits assumed): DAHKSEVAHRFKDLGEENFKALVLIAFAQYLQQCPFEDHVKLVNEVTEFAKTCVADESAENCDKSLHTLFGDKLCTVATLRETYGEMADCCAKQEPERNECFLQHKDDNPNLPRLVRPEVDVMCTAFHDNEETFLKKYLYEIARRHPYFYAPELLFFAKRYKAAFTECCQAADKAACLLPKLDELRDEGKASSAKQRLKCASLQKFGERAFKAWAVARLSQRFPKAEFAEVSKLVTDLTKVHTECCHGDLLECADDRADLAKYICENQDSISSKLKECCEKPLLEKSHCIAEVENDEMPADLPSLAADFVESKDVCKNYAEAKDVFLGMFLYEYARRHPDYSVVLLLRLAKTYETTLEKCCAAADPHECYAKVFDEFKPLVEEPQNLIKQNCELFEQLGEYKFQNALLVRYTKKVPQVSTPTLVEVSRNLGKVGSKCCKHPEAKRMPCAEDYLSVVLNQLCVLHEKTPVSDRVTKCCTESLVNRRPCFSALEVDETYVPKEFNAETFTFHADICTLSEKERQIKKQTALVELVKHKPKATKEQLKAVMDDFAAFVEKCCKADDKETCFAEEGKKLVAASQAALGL
Nature of the assay: SPR Biacore T200, HSA on CM5 chip, ADAPT injected, 1:1 fit. As for the experimental part: as §1
Background: SPR reads the build-up and loss of mass on a sensor chip optically.

Assay [3] addresses T1, C-reactive protein. Description: SPR Biacore T200, target on CM5 chip, ADAPT injected, 1:1 fit. On the procedure:
as §1
(§2) Variants with sufficient alpha helical structure as well as monomeric elution profiles on the SEC column were further analyzed for binding towards their target protein as well as to HSA. The binding towards the target antigen used in the selection was measured by a multi-cycle analysis using SPR, showing that several binders had affinities in the μM-pM range. […] After target binding had been established, the variants were also evaluated for their ability to simultaneously bind to HSA. This was done either through an SPR capture assay or an experiment where the ADAPT was pre-incubated with saturating conditions of HSA before the binding towards the target was analyzed. […] In total, thirteen of the characterized binders from the selections towards TNFα, PSA, ANG, MYDGF and Insulin could bind both HSA and its target antigen simultaneously. FIG. 5 contains sensorgrams for the thirteen variants in the capture assay.
The source holds these as a separate data set.

In assay [4] the target is T2, Human Serum Albumin. Nature of the assay: SPR Biacore T200, HSA on CM5 chip, ADAPT injected, 1:1 fit. On the procedure: as §1
This is another data set of the same source.

Assay [5] has as its target T3, Human recombinant Insulin (human, UniProt P01308 25-54; P01308 90-110, limits assumed).
T3 construct: also called bInsulin
Nature of the assay: SPR Biacore T200, target on CM5 chip, ADAPT injected, 1:1 fit. On the procedure:
as §1

Assay [6] deals with T3, Human recombinant Insulin. The description is as above. As for the experimental part:
as §1, §2
The source holds these as a separate data set.

Assay [7] concerns the target T4, renin (human (produced in the Human Secretome …, UniProt P00797 24-406, limits assumed)).
T4 construct: also called bREN
T4 sequence (looked up): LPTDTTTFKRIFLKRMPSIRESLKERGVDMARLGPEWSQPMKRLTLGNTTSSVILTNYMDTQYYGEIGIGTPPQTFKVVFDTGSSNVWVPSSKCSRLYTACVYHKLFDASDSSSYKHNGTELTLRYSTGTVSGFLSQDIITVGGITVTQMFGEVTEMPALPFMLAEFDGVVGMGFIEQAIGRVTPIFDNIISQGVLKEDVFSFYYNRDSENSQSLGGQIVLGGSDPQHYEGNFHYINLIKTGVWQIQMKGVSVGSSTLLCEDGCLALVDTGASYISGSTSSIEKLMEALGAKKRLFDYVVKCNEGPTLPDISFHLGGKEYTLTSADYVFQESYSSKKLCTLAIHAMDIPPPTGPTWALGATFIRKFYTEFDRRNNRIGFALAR
The description is as above. On the procedure: as §1

Assay [8] concerns the target T4, renin. Described as above. As for the experimental part:
as §1, §2
This is another data set of the same source.

For assay [9], the target named is T5, tumor necrosis factor alpha (human (produced in the Human Secretome …, UniProt P01375 77-233, limits assumed)).
T5 construct: also called TNFα; bTNFα
T5 sequence (P01375 77-233 limits assumed): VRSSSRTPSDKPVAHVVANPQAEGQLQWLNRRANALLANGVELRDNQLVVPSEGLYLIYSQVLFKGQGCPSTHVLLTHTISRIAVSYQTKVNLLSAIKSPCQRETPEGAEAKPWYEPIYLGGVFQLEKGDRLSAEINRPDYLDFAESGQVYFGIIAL
Described as above. As for the experimental part:
as §1

Assay [10] addresses T5, tumor necrosis factor alpha. The assay is described as above. As for the experimental part: as §1, §2
The source holds these as a separate data set.

Assay [11] has as its target T6, Prostate Specific Antigen (human (produced in the Human Secretome …, UniProt P07288 18-261, limits assumed)).
T6 construct: also called PSA; bPSA
The description is as above. As for the experimental part:
as §1

Assay [12] addresses T6, Prostate Specific Antigen. Described as above. On the procedure:
as §1, §2
This is another data set of the same source.

Another assay has as its target T7, angiogenin (human (produced in the Human Secretome …, UniProt P03950 25-147)).
T7 construct: also called bANG
Described as above. As for the experimental part: as §1

T7 sequence (P03950 25-147 limits assumed): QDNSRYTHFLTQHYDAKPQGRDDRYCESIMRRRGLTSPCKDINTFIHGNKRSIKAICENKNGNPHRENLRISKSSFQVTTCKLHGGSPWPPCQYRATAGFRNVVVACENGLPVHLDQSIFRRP
T3 sequence (P01308 25-54 limits assumed, chain 1 of 2): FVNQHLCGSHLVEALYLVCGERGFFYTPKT
T3 sequence (P01308 90-110 limits assumed, chain 2 of 2): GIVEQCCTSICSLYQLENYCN
T6 sequence (P07288 18-261 limits assumed): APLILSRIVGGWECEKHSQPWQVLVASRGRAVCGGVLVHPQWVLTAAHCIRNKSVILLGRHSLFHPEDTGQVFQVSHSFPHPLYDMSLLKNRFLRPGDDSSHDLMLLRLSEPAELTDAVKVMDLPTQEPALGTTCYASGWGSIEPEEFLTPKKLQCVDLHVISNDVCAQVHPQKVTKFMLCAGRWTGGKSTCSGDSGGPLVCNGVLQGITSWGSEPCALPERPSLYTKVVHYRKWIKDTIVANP

LSKAKAQAWHELYYYGVSDFYLSLIDKAKTVEGVEALKLHILAALP (designed binder) [ADAPT variant CRP_23]: the Kd was 1900 nM in the assay with C-reactive protein [1], 23 nM in the assay with Human Serum Albumin [2], 1900 nM in the assay with C-reactive protein [3] and 23 nM with Human Serum Albumin [4]. Moreover, the koff was determined as 0.0017 s⁻¹ with C-reactive protein [1] and 0.007 s⁻¹ with Human Serum Albumin [2]. The kon with C-reactive protein [1] amounted to 890 M⁻¹ s⁻¹; with Human Serum Albumin [2], 300000 M⁻¹ s⁻¹.

As to LVIAKAYAQYELAFYGVSDFYSDLIKKAKTVEGVEALKLHILAALP (designed binder, also called INS_01) [ADAPT variant Insulin_01], the Kd is 950 nM in assay [5], 3.9 nM in the assay with Human Serum Albumin [2], 950 nM in [6] and 3.9 nM with Human Serum Albumin [4]. Moreover, the koff came out at 0.22 s⁻¹ in [5] and 0.0014 s⁻¹ with Human Serum Albumin [2]. The results for the kon (in assay [5]; with Human Serum Albumin [2]) were 240000 M⁻¹ s⁻¹ and 360000 M⁻¹ s⁻¹, respectively.

In the case of LYHAKWMASLELAKYGVSDFYWNLISKAKTVEGVEALKLHILAALP (designed binder) [ADAPT variant REN_01], the Kd with renin [7] was determined as 76 nM; with Human Serum Albumin [2], 23 nM; with renin [8], 76 nM; in the assay with Human Serum Albumin [4] it was 23 nM. Moreover, the koff came to 0.0024 s⁻¹ in the assay with renin [7] and 0.00027 s⁻¹ with Human Serum Albumin [2]. Besides, the values for the kon with renin [7] and with Human Serum Albumin [2] were 32000 M⁻¹ s⁻¹ and 12000 M⁻¹ s⁻¹, respectively.

Consider LMWAKAEAAIELVDYGVSDFYQYLISKAKTVEGVEALKLHILAALP (designed binder) [ADAPT variant REN_40], for which the Kd in the assay with renin [7] was determined as 410 nM; with Human Serum Albumin [2], 5.5 nM; in the assay with renin [8], 410 nM; in the assay with Human Serum Albumin [4], 5.5 nM. Moreover, the koff was found to be 0.0035 s⁻¹ in the assay with renin [7] and 0.00064 s⁻¹ with Human Serum Albumin [2]. Also, the kon with renin [7] stood at 8700 M⁻¹ s⁻¹; with Human Serum Albumin [2] it was 120000 M⁻¹ s⁻¹.

LRVAKSMAWHELWSYGVSDFYLRLIDKAKTVEGVEALKLHILAALP (designed binder) [ADAPT variant CRP_09]: the Kd with C-reactive protein [1] turned out to be 1100 nM; in the assay with Human Serum Albumin [2], 7.7 nM; with C-reactive protein [3], 1100 nM; with Human Serum Albumin [4] it was 7.7 nM. Moreover, the koff with C-reactive protein [1] turned out to be 0.0013 s⁻¹; in the assay with Human Serum Albumin [2], 0.0038 s⁻¹. For the same molecule, the kon was determined as 1200 M⁻¹ s⁻¹ with C-reactive protein [1] and 490000 M⁻¹ s⁻¹ in the assay with Human Serum Albumin [2].

Consider LIWAKASAVRELHRYGVSDFYYELIVKAKTVEGVEALKLHILAALP (designed binder) [ADAPT variant TNFα_09], for which the Kd worked out at 3.6 nM in assay [9], 9.5 nM with Human Serum Albumin [2], 3.6 nM in [10] and 9.5 nM with Human Serum Albumin [4]. For the same molecule, the results for the koff (in assay [9]; with Human Serum Albumin [2]) were 0.0032 s⁻¹ and 0.00034 s⁻¹, respectively. Besides, the kon in [9] stood at 890000 M⁻¹ s⁻¹; in the assay with Human Serum Albumin [2] it was 36000 M⁻¹ s⁻¹.

Take LFRAKVWAVWELDQYGVSDFYDELIWKAKTVEGVEALKLHILAALP (designed binder) [ADAPT variant PSA_05]: the dissociation constant Kd in assay [11] is 300 nM; with Human Serum Albumin [2], 3.3 nM; in [12], 300 nM; with Human Serum Albumin [4], 3.3 nM. Moreover, the off-rate (koff) in [11] was determined as 0.059 s⁻¹; in the assay with Human Serum Albumin [2], 0.0003 s⁻¹. Moreover, the kon in assay [11] stood at 200000 M⁻¹ s⁻¹; in the assay with Human Serum Albumin [2], 92000 M⁻¹ s⁻¹.

As to LYVAKDNADWELWQYGVSDFYRSLIWKAKTVEGVEALKLHILAALP (designed binder) [ADAPT variant ANG_16], in the assay with angiogenin, the Kd was determined as 5.1 nM, the off-rate constant (koff) turned out to be 0.0005 s⁻¹ and the kon stood at 99000 M⁻¹ s⁻¹. Besides, in the assay with Human Serum Albumin [2], the equilibrium dissociation constant (Kd) amounted to 1 nM, the off-rate (koff) came out at 3e-05 s⁻¹ and the kon was determined as 29000 M⁻¹ s⁻¹. In addition, the affinity in the assay with Human Serum Albumin [4], expressed as Kd, was 1 nM.

On to LYWAKDYADYELWQYGVSDFYRSLIWKAKTVEGVEALKLHILAALP (designed binder, also called ANG_2) [ADAPT variant ANG_02], for which the Kd with angiogenin turned out to be 14 nM; with Human Serum Albumin [2], 2 nM; in the assay with Human Serum Albumin [4], 2 nM. In addition, the koff with angiogenin amounted to 0.0007 s⁻¹; in the assay with Human Serum Albumin [2], 4.5e-05 s⁻¹. Besides, the kon was 52000 M⁻¹ s⁻¹ in the assay with angiogenin and 23000 M⁻¹ s⁻¹ in the assay with Human Serum Albumin [2].

LKVAKIIAFHELWEYGVSDFYLSLIDKAKTVEGVEALKLHILAALP (designed binder) [ADAPT variant CRP_38]: the Kd stood at 52 nM with C-reactive protein [1], 13 nM with Human Serum Albumin [2], 52 nM with C-reactive protein [3] and 13 nM with Human Serum Albumin [4]. The koff with C-reactive protein [1] was 0.0017 s⁻¹; with Human Serum Albumin [2], 0.0054 s⁻¹. For the same molecule, the results for the kon with C-reactive protein [1] and with Human Serum Albumin [2] were 33000 M⁻¹ s⁻¹ and 410000 M⁻¹ s⁻¹, respectively.

As to LHYAKIMAFHELWQYGVSDFYLQLIDKAKTVEGVEALKLHILAALP (designed binder) [ADAPT variant CRP_48], the Kd was 62 nM with C-reactive protein [1], 15 nM in the assay with Human Serum Albumin [2], 62 nM in the assay with C-reactive protein [3] and 15 nM in the assay with Human Serum Albumin [4]. In addition, the koff with C-reactive protein [1] amounted to 0.0012 s⁻¹; in the assay with Human Serum Albumin [2], 0.0042 s⁻¹. The on-rate (kon) came out at 19000 M⁻¹ s⁻¹ with C-reactive protein [1] and 280000 M⁻¹ s⁻¹ in the assay with Human Serum Albumin [2].

In the case of LTVAKFWALTELQEYGVSDFYANLITKAKTVEGVEALKLHILAALP (designed binder) [ADAPT variant PSA_01], the Kd in assay [11] stood at 280 nM; with Human Serum Albumin [2], 1.1 nM; in [12], 280 nM; with Human Serum Albumin [4], 1.1 nM. Further, the koff in assay [11] turned out to be 0.1 s⁻¹; with Human Serum Albumin [2], 0.0012 s⁻¹. For the same molecule, the figures for the kon (in assay [11]; with Human Serum Albumin [2]) were 360000 M⁻¹ s⁻¹ and 1.1e+06 M⁻¹ s⁻¹, respectively.

B1: ADAPT variant TNFα_05 (designed binder)
chain: LIWAKAEAVQELFMYGVSDFYYDLIIKAKTVEGVEALKLHILAALP
notes: Single domain of about 6 kDa, made in E. coli, purified on HSA resin
For the molecule B1, the Kd in assay [9] came to 2.5 nM; in the assay with Human Serum Albumin [2], 18 nM; in [10], 2.5 nM; with Human Serum Albumin [4], 18 nM. Besides, the results for the koff (in [9]; with Human Serum Albumin [2]) were 0.0037 s⁻¹ and 0.00039 s⁻¹, respectively. For the same molecule, the figures for the kon (in assay [9]; with Human Serum Albumin [2]) were 1.5e+06 M⁻¹ s⁻¹ and 21000 M⁻¹ s⁻¹, respectively.

Consider LAVAKAYAKYELAFYGVSDFYNELILKAKTVEGVEALKLHILAALP (designed binder, also called INS_03) [ADAPT variant Insulin_03], for which the Kd in [5] was 1300 nM; with Human Serum Albumin [2], 3.1 nM; in [6], 1300 nM; with Human Serum Albumin [4] it was 3.1 nM. For the same molecule, the results for the koff (in assay [5]; in the assay with Human Serum Albumin [2]) were 0.22 s⁻¹ and 0.0014 s⁻¹, respectively. The kon in assay [5] amounted to 180000 M⁻¹ s⁻¹; with Human Serum Albumin [2], 460000 M⁻¹ s⁻¹.
